Measurements published in patent publication US20030163841A1 (YALE UNIVERSITY, published 2003).

Columns and labels:
[1] = target: the molecule itself; assay: gel filtration (Superdex-200) of seedling extracts, immunoblot of fractions
Experimental: For gel filtration chromatography, 8-day-old light- or dark grown seedlings were homogenized with 2× gel filtration buffer containing 50 mM Tris-HCl (pH 7.5), 440 mM NaCl, 2 mM MgCl₂, 2 μM ZnSO₄, 0.5 mM PMSF and centrifuged for 5 min at 4° C. Total soluble protein was fractionated through a 25 ml Superdex-200 FPLC column (Pharmacia) with 1× gel filtration buffer at a flow rate of […]. All procedures were carried out at 4° C. and, for dark samples, under dim green safe light. Consecutive fractions of 0.5 ml each were collected after the void volume (7.5 ml), concentrated, and subjected to 10% SDS-PAGE followed by a protein immunoblot analysis. The molecular weight standards for size estimation of the native COP1 protein were as follows: blue dextran (void); thyroglobulin (669 kDa); ferritin (440 kDa); catalase (232 kDa); aldolase (158 kDa); BSA (67 kDa); ovalbumin (43 kDa); and ribonuclease A (13.7 kDa) (Sigma).
To confirm the presence of COP1 dimers in vivo, a gel-filtration analysis was performed using protein extracts from light- or dark-grown Arabidopsis wild-type seedlings. […] However, the COP1 peak was very broad and contained a broad shoulder toward the larger molecular size fractions (FIG. 1B). Therefore it is possible that a portion of COP1 may present as homo-oligomers or in heterogeneous associations with other molecules in vivo. […]

[2] = target: the molecule itself; assay: yeast two-hybrid, LacZ reporter
Excerpt: (C) Delimitation of Cop1 self-association domain utilizing the yeast two-hybrid system. For baits (Bait), Cop1 domain fragments were fused with the LexA DNA binding domain (LexA). For preys (Prey), the COP1 domain fragments were fused with the synthetic transcription activation domain (AD). Numbers and names at the left indicate a pairwise combination of bait and prey constructs in each row. The graph at the right indicates the relative LacZ reporter activity in yeast cells corresponding to combinations of bait and prey constructs presented in each row. For each pairwise combination, at least 8 individual transformants were used to measure the LacZ activity. Error bars represent standard deviation. Combination 1 (LexA: N282) and 2 (N282:AD) serve as negative controls.
pKS-RING and pKS-Coil are digested with EcoRI and XhoI, and rest of the COP1 domain cassettes in the pKSm vectors were digested with EcoRI. Fragments were then ligated into pEG202 or pJG4-5 to generate COP1 domains fused to the LexA DNA binding protein or the synthetic activation domain, respectively (Golemis et al., 1995). Generation of pEG-N282, pJG-N282, pJG-COP1, and pJG-ΔRING was described elsewhere (McNellis et al., 1996; Ang et al., 1998). To generate pJG-GUS-ΔRΔC, pRTL-GUS-ΔRΔC was cleaved with NcoI and XbaI and then ligated into NcoI/XbaI digested pKS-COP1. […]

[3] = target: the molecule itself; assay: chemical cross-linking (DSub or EGS) of in vitro translated protein, SDS-PAGE, fluorography
Experimental: Protein immunoblot analysis was performed exactly as described previously (McNellis et al., 1994a). pAR-COP1 , a FLAG-tagged COP1 that has an additional peptide […] at the N-terminus (Matsui et al., 1995), was in vitro transcribed and translated using TNT coupled reticulocyte lysate system (Promega) and radiolabelled with [³⁵S]methionine (Amersham). For chemical cross-linking, 2 μl of translation mix (with radiolabelled proteins) was diluted to 18 μl with a reaction buffer (100 mM potassium phosphate [pH 7.7]; 100 mM NaCl; 0.1 mM ZnSO₄; 10% glycerol; 0.1% NonidetP-40; 4 mM DTT) and cross-linked with 2 μl of freshly diluted Dsub or EGS in dimethyl sulfoxide. For a negative control, 2 μl of dimethyl sulfoxode was added to the reaction. After 20 min incubation at room temperature, the reaction was quenched by addition of 2 μl of 1 M glycine (for Dsub) or 200 mM lysine (for EGS) and 22 μl of 2× Laemmli SDS-PAGE buffer. Samples were boiled for 5 min, separated by 6% SDS-PAGE, and fluorographed after treatment with Amplify (Amersham).
To better understand the COP1 self-association, we performed a chemical cross-linking analysis of in-vitro translated COP1 protein in solution. A FLAG-COP1 epitope tagged protein was in-vitro translated and then cross-linked with either dimethylsuberimidate (DSub) or ethylene glycobis (succinimidylsuccinate) (EGS). […]

B1: endogenous Arabidopsis COP1 protein (extracts of wild-type seedlings) (other, UniProt P43254 1-675, looked up)
chain: MEEISTDPVVPAVKPDPRTSSVGEGANRHENDDGGSGGSEIGAPDLDKDLLCPICMQIIKDAFLTACGHSFCYMCIITHLRNKSDCPCCSQHLTNNQLYPNFLLDKLLKKTSARHVSKTASPLDQFREALQRGCDVSIKEVDNLLTLLAERKRKMEQEEAERNMQILLDFLHCLRKQKVDELNEVQTDLQYIKEDINAVERHRIDLYRARDRYSVKLRMLGDDPSTRNAWPHEKNQIGFNSNSLSIRGGNFVGNYQNKKVEGKAQGSSHGLPKKDALSGSDSQSLNQSTVSMARKKRIHAQFNDLQECYLQKRRQLADQPNSKQENDKSVVRREGYSNGLADFQSVLTTFTRYSRLRVIAEIRHGDIFHSANIVSSIEFDRDDELFATAGVSRCIKVFDFSSVVNEPADMQCPIVEMSTRSKLSCLSWNKHEKNHIASSDYEGIVTVWDVTTRQSLMEYEEHEKRAWSVDFSRTEPSMLVSGSDDCKVKVWCTRQEASVINIDMKANICCVKYNPGSSNYIAVGSADHHIHYYDLRNISQPLHVFSGHKKAVSYVKFLSNNELASASTDSTLRLWDVKDNLPVRTFRGHTNEKNFVGLTVNSEYLACGSETNEVYVYHKEITRPVTSHRFGSPDMDDAEEEAGSYFISAVCWKSDSPTMLTANSQGTIKVLVLAA
notes: range 1-675; Gel filtration peak at about 160 kDa is read as a dimer; The peak is broad, so oligomers, other partners and some monomer are not excluded; also called native COP1 protein
binding result [1]: binds

B2: Coil domain of COP1 (pKS-Coil cassette) (other)
chain: MDKLLKKTSARHVSKTASPLDQFREALQRGCDVSIKEVDNLLTLLAERKRKMEQEEAERNMQILLDFLHCLRKQKVDELNEVQTDLQYIKEDINAVERHRIDLYRARD
notes: The cassette used in yeast starts at aa104 (L104M); Fused to LexA or AD in yeast; also called coiled-coil domain
binding result [2]: binds

B3: FLAG-COP1 epitope tagged protein (pAR-COP1), in vitro translated and [35S]methionine labelled (other, Arabidopsis)
chain: DDADTKDDDDKMEEISTDPVVPAVKPDPRTSSVGEGANRHENDDGGSGGSEIGAPDLDKDLLCPICMQIIKDAFLTACGHSFCYMCIITHLRNKSDCPCCSQHLTNNQLYPNFLLDKLLKKTSARHVSKTASPLDQFREALQRGCDVSIKEVDNLLTLLAERKRKMEQEEAERNMQILLDFLHCLRKQKVDELNEVQTDLQYIKEDINAVERHRIDLYRARDRYSVKLRMLGDDPSTRNAWPHEKNQIGFNSNSLSIRGGNFVGNYQNKKVEGKAQGSSHGLPKKDALSGSDSQSLNQSTVSMARKKRIHAQFNDLQECYLQKRRQLADQPNSKQENDKSVVRREGYSNGLADFQSVLTTFTRYSRLRVIAEIRHGDIFHSANIVSSIEFDRDDELFATAGVSRCIKVFDFSSVVNEPADMQCPIVEMSTRSKLSCLSWNKHEKNHIASSDYEGIVTVWDVTTRQSLMEYEEHEKRAWSVDFSRTEPSMLVSGSDDCKVKVWCTRQEASVINIDMKANICCVKYNPGSSNYIAVGSADHHIHYYDLRNISQPLHVFSGHKKAVSYVKFLSNNELASASTDSTLRLWDVKDNLPVRTFRGHTNEKNFVGLTVNSEYLACGSETNEVYVYHKEITRPVTSHRFGSPDMDDAEEEAGSYFISAVCWKSDSPTMLTANSQGTIKVLVLAA
notes: range 1-675; Monomer 78 kDa, cross-linked product about 160 kDa; A second, lower band may start at an internal methionine of COP1; also called FLAG-tagged COP1
binding result [3]: binds
